The values below come from patent US20030060599A1, “Tripeptide amides that block viral infectivity and methods of use thereof” (published 2003).

Ends that are not written are not given here. Where only a bound is given, the exact number is not on record here.

The chains are these.
B1: Pro-Lys-Glu-NH2 (peptide)
peptide: Pro-Lys-Glu-NH2
B2: Arg-Val-Leu-NH2 (peptide)
peptide: Arg-Val-Leu-NH2
B3: Thr-Leu-Glu-NH2 (peptide)
peptide: Thr-Leu-Glu-NH2
B4: Glu-Pro-Phe-NH2 (peptide)
peptide: Glu-Pro-Phe-NH2

The assay deals with major capsid protein (p24) of HIV-1 (HIV-1 (SF-2), UniProt P03349). The assay is described as follows: cell-based or functional assay.
B1: the “antiviral inhibitory activity as determined by p24 production and RT activity in the culture supernatants (H9 cells, HIV-1 SF-2, 100 µM peptide)” value is more than 80%. With B2 the figure was more than 80%; with B3, more than 80%; with B4, more than 80%.
